This passage reports binding result and Kd results from US7125658B2, “Small protein that interacts with a ribonucleotide reductase subunit and uses thereof” (The Trustees of Columbia University in the City of New York, priority 1998, dated 2006).

In experiment [1] the target is T1, Yeast Rnr2p/Rnr4p heterodimer (yeast (Saccharomyces cerevisiae), UniProt P09938 1-399; P49723 1-345).
T1 construct: Coexpressed and purified as a heterodimer; also called R2/R4 heterodimer
T1 sequence (looked up) 1: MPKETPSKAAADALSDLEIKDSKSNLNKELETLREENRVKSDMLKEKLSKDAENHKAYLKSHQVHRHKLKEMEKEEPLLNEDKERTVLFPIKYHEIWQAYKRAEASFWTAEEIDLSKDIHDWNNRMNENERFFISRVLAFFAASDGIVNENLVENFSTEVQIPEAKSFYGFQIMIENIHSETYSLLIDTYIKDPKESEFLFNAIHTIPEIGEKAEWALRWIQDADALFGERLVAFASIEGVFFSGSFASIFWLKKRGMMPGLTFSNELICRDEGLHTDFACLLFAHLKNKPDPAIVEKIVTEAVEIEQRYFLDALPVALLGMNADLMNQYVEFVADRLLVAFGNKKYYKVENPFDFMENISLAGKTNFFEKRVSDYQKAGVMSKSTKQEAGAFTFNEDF
T1 sequence (looked up) 2: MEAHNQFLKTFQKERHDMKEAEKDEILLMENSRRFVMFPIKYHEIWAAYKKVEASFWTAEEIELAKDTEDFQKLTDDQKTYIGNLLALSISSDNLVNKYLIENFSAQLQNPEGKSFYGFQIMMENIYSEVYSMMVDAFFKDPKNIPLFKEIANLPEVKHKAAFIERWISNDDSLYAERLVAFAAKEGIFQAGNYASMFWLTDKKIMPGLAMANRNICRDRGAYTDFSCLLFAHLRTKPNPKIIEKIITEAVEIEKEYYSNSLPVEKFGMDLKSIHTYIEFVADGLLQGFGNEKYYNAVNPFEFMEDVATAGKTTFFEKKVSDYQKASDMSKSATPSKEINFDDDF
Put plainly: BIAcore, immobilized Sml1p. A general note: SPR reads the build-up and loss of mass on a sensor chip optically.

Experiment [2] concerns the target T2, Recombinant mouse ribonucleotide reductase R2 protein (mouse, UniProt P11157 1-390).
T2 construct: also called mouse R2 protein
T2 sequence (looked up): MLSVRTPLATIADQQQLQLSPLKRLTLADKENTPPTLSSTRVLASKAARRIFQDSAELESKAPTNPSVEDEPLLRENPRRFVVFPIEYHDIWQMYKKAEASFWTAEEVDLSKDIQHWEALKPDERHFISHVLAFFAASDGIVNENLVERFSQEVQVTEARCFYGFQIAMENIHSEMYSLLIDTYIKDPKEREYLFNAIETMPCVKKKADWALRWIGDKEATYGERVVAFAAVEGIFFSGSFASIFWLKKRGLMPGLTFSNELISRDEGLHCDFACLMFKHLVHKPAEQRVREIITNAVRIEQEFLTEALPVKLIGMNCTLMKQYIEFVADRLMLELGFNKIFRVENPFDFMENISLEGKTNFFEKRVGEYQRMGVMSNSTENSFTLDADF
Put plainly: BIAcore, immobilized Sml1p.

In experiment [3] the target is T3, Recombinant yeast Rnr1 protein (large subunit of ribonucleotide reductase) (yeast (Saccharomyces cerevisiae), UniProt P21524 1-888).
T3 construct: It is in monomer/dimer/tetramer equilibrium depending on dTTP; also called yeast R1 protein
T3 sequence (looked up): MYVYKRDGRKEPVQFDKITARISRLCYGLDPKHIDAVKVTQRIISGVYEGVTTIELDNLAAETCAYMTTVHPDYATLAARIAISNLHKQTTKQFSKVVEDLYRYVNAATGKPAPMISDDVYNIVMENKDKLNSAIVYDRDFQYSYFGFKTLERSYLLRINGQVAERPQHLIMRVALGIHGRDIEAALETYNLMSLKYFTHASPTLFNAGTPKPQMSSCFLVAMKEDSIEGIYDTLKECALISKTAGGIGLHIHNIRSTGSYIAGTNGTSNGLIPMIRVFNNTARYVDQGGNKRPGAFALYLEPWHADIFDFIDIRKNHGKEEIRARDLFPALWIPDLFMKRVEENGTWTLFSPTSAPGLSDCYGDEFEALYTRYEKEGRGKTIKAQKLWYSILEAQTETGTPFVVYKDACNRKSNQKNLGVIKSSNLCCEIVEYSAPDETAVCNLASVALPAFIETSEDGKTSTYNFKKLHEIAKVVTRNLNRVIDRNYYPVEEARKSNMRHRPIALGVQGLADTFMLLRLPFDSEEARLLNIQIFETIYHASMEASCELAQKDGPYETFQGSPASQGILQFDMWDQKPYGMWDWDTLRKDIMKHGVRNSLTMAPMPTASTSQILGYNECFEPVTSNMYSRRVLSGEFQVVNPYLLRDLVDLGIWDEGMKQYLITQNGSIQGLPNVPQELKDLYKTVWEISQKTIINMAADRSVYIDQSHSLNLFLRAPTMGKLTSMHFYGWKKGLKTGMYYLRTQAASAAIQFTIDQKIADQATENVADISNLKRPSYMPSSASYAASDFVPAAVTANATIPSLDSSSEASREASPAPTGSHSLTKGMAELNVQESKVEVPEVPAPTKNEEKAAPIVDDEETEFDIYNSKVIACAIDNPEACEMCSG
Put plainly: BIAcore SPR, calculated from rate constants; calculated from the rate constants, not the equilibrium fit. How it is done:
BIAcore biosensor analysis. The interaction between Sml1p and either yeast Rnr1p or mouse R1 protein was studied by biosensor analysis using the BIAcore method (Biacore AB). The Sml1 protein was prepared in 10 mM sodium acetate, pH 5.2, at a concentration of 0.44 mg/ml; it was then immobilized on the dextran layer of the sensor chip as described previously for the mouse R2 protein (17). The ligand proteins were equilibrated with running buffer (10 mM Hepes-KOH, pH 7.4, 200 mM potassium acetate, 1 mM EDTA, 5 mM magnesium acetate and 0.05% Surfactant P20 (BIAcore). The interactions were studied at a constant temperature of 22° C. and a constant flow of 5 μl/min. Kinetics for the interaction of Sml1p with yeast Rnr1p was determined by allowing the immobilized Sml1p to interact with increasing concentrations of Rnr1p (18). The resonance unit (RU) is proportional to the mass, and 1 RU corresponds to a surface concentration of 1 pg of protein/mm² of the 100 nm thick dextran layer (19).
In control experiments, where the same series of Rnr1p solutions passed a sensor chip without immobilized Sml1p, a "bulk effect" gave a response of only about 60 RU. […] Calculating the equilibrium dissociation constant from these rate constants gave a K_0 of about 0.25 µM, which is close to the directly determined K_0.

B1: Recombinant yeast Sml1 protein (other)
chain: MQNSQDYFYAQNRCQQQQAPSTLRTVTMAEFRRVPLPPMAEVPMLSTQNSMGSSASASASSLEMWEKDLEERLNSIDHDMNNNKFGSGELKSMFNQGKVEEMDF
notes: Immobilized on the BIAcore chip in the biosensor experiments; also called YML058W product
For the molecule B1, the binding result in experiment [1] is recorded as “no binding (tested: 0.1 mg/ml)”; in experiment [2], “no binding”. The Kd (commonly the free concentration of one partner at which half of the binding sites on the other are occupied at equilibrium, for simple one-to-one binding) in experiment [3] was roughly 250 nM.
